This note sets out measurements from patent US20110123447A1 (UNIVERSITY OF ZURICH, published 2011).

For assay [1], the target named is T1, NY-ESO-1 11-30 peptide (human).
T1 construct: also called peptide spanning amino acids 11 to 30 of NY-ESO-1
T1 peptide: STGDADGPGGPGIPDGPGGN
As to the kind of experiment: saturation ELISA on coated NY-ESO-1 11-30 peptide.

Assay [2] addresses T2, NY-ESO-1 peptide spanning amino acids 1-20 (human, UniProt P78358 1-20).
T2 construct: range 1-20; also called adjacent peptide 1-20
T2 peptide (looked up): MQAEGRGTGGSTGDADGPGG
Put plainly: epitope mapping ELISA on coated overlapping peptides. As for the experimental part: (§1) 20mer peptides spanning the entire NY-ESO-1 protein with 10 aa overlaps shared by each adjacent peptides (Peptides&Elephants, Nuthetal, Germany) were used to coat Maxisorp ELISA plates (Nunc, Rochester, N.Y.). Human recombinant antibody Manhattan or patient serum (diluted 1:500 in PBS) was detected using horseradish peroxidase-conjugated Goat anti-human IgG+IgM (Jackson ImmunoResearch).
(§2) To identify the epitope recognized by Manhattan on NY-ESO-1 ELISA was performed using overlapping peptides spanning the complete NY-ESO-1 protein. […] This epitope, among others was also recognized by antibodies contained in serum of patient C1 (FIG. 3B).

Assay [3] deals with T3, NY-ESO-1 peptide spanning amino acids 21-40 (human, UniProt P78358 21-40).
T3 construct: range 21-40; also called adjacent peptide 21-40
T3 peptide (looked up): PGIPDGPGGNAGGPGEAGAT
The description is as above. As for the experimental part: as §1, §2

Assay [4] addresses T4, NY-ESO-1 as expressed in NY-ESO-1-positive mamma carcinoma tissue sections and in the cell line SK-MEL-37 (human, UniProt P78358 1-180).
T4 construct: whole, on cells; The antigen is intracellular; It was detected in fixed sections or permeabilised cells, not on the cell surface; also called NY-ESO-1-positive tissue; NY-ESO-1-positive cell line SK-MEL-37
Put plainly: immunohistochemistry on NY-ESO-1-positive tissue sections. As for the experimental part:
Immunohistochemistry was performed on formalin-fixed, paraffin-embedded tissue. Heat-based antigen retrieval was applied to all slides. Non-specific fluorescence was blocked using polyclonal rabbit anti-human IgG (Dako, Baar, Switzerland) for 30 min at room temperature followed by a second block in 1% of low fat milk (Rapilait, Migros, Switzerland) for 10 min. Primary antibody or B cell conditioned medium was incubated overnight at 4° C. […] As positive control for the presence of NY-ESO-1 antigen a mouse anti-NY-ESO-1 monoclonal antibody (Zymed, South San Francisco, USA) was used.

Assay [5] has as its target T1, NY-ESO-1 11-30 peptide. As to the kind of experiment: competition ELISA: soluble NY-ESO-1 11-30 peptide against plate bound peptide. As for the experimental part: The avidity of Manhattan was determined by competition ELISA using increasing concentrations of soluble NY-ESO-1₁₁₋₃₀ peptide to compete for the plate bound peptide. As depicted in FIG. 3C, the antigen-binding equilibrium dissociation constant (KD) of the interaction of Manhattan with its cognate peptide was in the lower nanomolar range.

Assay [6] addresses T5, full length recombinant NY-ESO-1 protein (human, UniProt P78358 1-180).
T5 construct: mature; The form was set to 'mature' to stand for full length
Put plainly: ELISA on coated recombinant NY-ESO-1, supernatant of transfected 293 HEK cells.

Values joined by “and” are separate entries in the source; they are usually repeats but may differ in a detail not shown here. Equal values may be shown once.

B1: human monoclonal antibody Manhattan (recombinant human antibody 12D7 clone No. 4) (antibody, human IgG1, V domains shown)
VH: QVQLVQSGGGVVRPGGSLRLSCAASGFSFIDYGMSWVRQVPGKGLEWVAGMNWSGDKKGHAESVKGRFIISRDNAKNTLYLEMSSLRVEDTALYFCARGEYSNRFDPRGRGTLVTVSS
VL: DIVMTQTPLSLPVTLGQPASLSCRSSQSLVFTDGNTYLNWFQQRPGQSPRRLIYKVSSRDPGVPDRFSGTGSGTDFTLEISRVEAEDIGVYYCMQGTHWPPIFGQGTKVEIK
notes: They were cloned into vectors with the constant regions of human IgG1 heavy chain and human kappa light chain and expressed in 293 HEK cells; also called 12D7 clone number 4; 12D7.4
Turning to B1, in the assay with NY-ESO-1 11-30 peptide [1], the EC50 was 1 nM and 0.15 µg/mL. Moreover, the binding result in assay [2] was “no binding”; in assay [3], “no binding”; in assay [4], “binds”; in assay [6] it was “binds”. This molecule returned a Kd in the assay with NY-ESO-1 11-30 peptide [5] of 0.1 nM.
